Reference: patent US20160297875A1 (CASE WESTERN RESERVE UNIVERSITY, published 2016)

Tests used:
[1] = target: human platelet CD36 (human) (UniProt P16671); assay: cell-based or functional assay
BSA = target: T1, BSA (bovine, UniProt P02769 25-607); assay: plate binding assay, wells coated with BSA (10 µg/mL), detection with anti-human MRP-14 antibody and HRP-conjugated secondary antibody at 450 nm
T1 construct: also called bovine serum albumin
Procedure: High-protein binding plate (Nunc, Thermo Scientific) was coated with purified CD36 (Abcam) or BSA (10 μg/mL) overnight at 4° C. After blocking with 10% BSA at RT for 2 hours, purified human MRP-14 protein (0-2.5 μg/ml) was added and incubated for 2 hours at RT. After washing, plate was incubated with anti-human MRP-14 antibody for one hour followed by washing and incubation with HRP-conjugated secondary antibody that was detected with TMB substrate (Thermo Scientific) at 450 nm.

T1 sequence (P02769 25-607 limits assumed): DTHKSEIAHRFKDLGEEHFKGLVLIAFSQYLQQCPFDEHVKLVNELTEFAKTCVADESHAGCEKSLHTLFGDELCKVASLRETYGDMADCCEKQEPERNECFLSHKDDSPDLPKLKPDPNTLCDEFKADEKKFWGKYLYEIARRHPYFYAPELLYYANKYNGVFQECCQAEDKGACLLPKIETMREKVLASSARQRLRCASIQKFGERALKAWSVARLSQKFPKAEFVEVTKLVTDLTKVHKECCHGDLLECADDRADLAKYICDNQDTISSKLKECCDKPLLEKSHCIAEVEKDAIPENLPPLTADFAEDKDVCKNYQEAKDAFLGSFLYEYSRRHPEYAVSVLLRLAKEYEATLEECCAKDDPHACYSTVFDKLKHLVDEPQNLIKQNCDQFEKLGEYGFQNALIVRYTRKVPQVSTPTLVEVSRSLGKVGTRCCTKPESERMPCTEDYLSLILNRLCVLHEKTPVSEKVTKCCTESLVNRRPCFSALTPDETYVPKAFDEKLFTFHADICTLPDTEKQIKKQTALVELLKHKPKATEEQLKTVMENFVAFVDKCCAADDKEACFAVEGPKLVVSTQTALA
Chain of human platelet CD36 (human) (P16671 2-472 limits assumed): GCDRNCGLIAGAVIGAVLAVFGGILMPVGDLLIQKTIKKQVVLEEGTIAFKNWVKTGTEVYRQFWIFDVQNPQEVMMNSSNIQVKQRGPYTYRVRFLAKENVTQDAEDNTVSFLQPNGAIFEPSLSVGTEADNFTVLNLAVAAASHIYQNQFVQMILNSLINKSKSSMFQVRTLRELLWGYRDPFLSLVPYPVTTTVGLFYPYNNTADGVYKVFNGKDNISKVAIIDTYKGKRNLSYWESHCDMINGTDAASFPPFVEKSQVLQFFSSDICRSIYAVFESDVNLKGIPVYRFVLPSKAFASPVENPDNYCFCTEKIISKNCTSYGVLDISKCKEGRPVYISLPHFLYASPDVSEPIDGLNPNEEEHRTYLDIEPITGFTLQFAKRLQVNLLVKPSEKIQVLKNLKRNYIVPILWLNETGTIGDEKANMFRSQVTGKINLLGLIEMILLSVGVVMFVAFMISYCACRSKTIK

Row | Molecule | percentage of inhibition of shear-induced thrombus formation in anticoagulated human whole blood (antibody 10 µg/ml) [1] [%] | binding result (BSA)
1 | anti-human CD36 monoclonal antibody (clone FA6-152) | 53.8 | 
2 | purified, recombinant human MRP-14 (ligand, UniProt P06702 1-114, looked up, Bought protein; also called purified MRP-14; purified human MRP-14 protein) MTCKMSQLERNIETIINTFHQYSVKLGHPDTLNQGEFKELVRKDLQNFLKKENKNEKVIEHIMEDLDTNADKQLSFEEFIMLMARLTWASHEKMHEGDEGPGHHHKPGLGEGTP |  | no binding (tested: 0-2.5 µg/ml MRP-14)
